Experimental data taken from PMC5090862, “Coenzyme Engineering of a Hyperthermophilic 6-Phosphogluconate Dehydrogenase from NADP^+ to NAD^+ with Its Application to Biobatteries” (Scientific Reports, 2016).
Numbering of substitutions follows the chain as printed. Numbers in names are those of the source.

B1: Tm6PGDH (6-phosphogluconate dehydrogenase from Thermotoga maritima) (Thermotoga maritima MSB8) (protein)
chain: MKSHIGLIGLAVMGQNLALNIARKGYKVSVYNRTAQRTEEFVKNRVTNEEIEPHYDIESFVKSLERPRKIILMVKAGKPVDDTISQLLPHLEPGDLIIDGGNSHYMDTERRFKELSEKGILFLGMGVSGGEYGALHGPSLMPGGSREAYNLVEEILLEIAAKTEDGPCCTYVGERSAGHFVKMVHNGIEYAIMQAIAEVYHIMRDVLSLSSEEMSSIFEEWNRGELSSFLVEITYKILRKKDEETGKPMVDVILDKAEQKGTGKWTSQAALDLGIPTPSINLAVVERVISHFKDIRTRLSKLYNKRRSATQGSEEFLRDLRNSLFFAMFMAFSQGMWLIAEASKEFGYGVSLSEVLRIWKGGCIIRAKLIDTLRRYISNENAYLLENEEVMNLLKGKIDSLKNILKASIENEIPVPVLSSSYNYFMSLTEERLPANLIQAQRDFFGAHTFERVDREGVFHINWEEGEIG
notes: full length in pET20b, C-terminal His tag (LEHHHHHH from primer), E. coli BL21(DE3), Ni-NTA; primers encode N-terminus MKSHIGLI and C-terminus NWEEGEIG before the tag
B2: Tm6PGDH (6-phosphogluconate dehydrogenase from Thermotoga maritima) (Thermotoga maritima MSB8; N32D/R33I/T34I) (protein)
chain: B1 chain with N32D, R33I, T34I
notes: as for B1
B3: Tm6PGDH (6-phosphogluconate dehydrogenase from Thermotoga maritima) (Thermotoga maritima MSB8; N32D) (protein)
chain: B1 chain with N32D
notes: as for B1
B4: Tm6PGDH (6-phosphogluconate dehydrogenase from Thermotoga maritima) (Thermotoga maritima MSB8; N32D/R33L/T34S) (protein)
chain: B1 chain with N32D, R33L, T34S
notes: as for B1
B5: Tm6PGDH (6-phosphogluconate dehydrogenase from Thermotoga maritima) (Thermotoga maritima MSB8; N32E/R33I/T34I) (protein)
chain: B1 chain with N32E, R33I, T34I
notes: as for B1

Assays:
[1] = biological target: T1, Tm6PGDH (6-phosphogluconate dehydrogenase from Thermotoga maritima) (Thermotoga maritima, UniProt Q9WYR9, N32D/R33L/T34S); assay: NAD(P)H formation at […] nm, Michaelis-Menten fit; type: biochemical; settings: 2 mM 6-phosphogluconate, 5 mM MgCl2, 0.5 mM MnCl2, 100 mM HEPES pH 7.5, 70 °C; apparent Km; read-out: Km (mM) / NADP^+
T1 construct: gene TM_0438; full length in pET20b, C-terminal His tag (LEHHHHHH from primer), E. coli BL21(DE3), Ni-NTA; primers encode N-terminus MKSHIGLI and C-terminus NWEEGEIG before the tag
Excerpt: (§1) (6-phosphogluconate dehydrogenase from Thermotoga maritima)

[2] = substrate: NC(=O)c1ccc[n+]([C@@H]2O[C@H](COP(=O)(O)OP(=O)(O)OC[C@H]3O[C@@H](n4cnc5c(N)ncnc54)[C@H](O)[C@@H]3O)[C@@H](O)[C@H]2O)c1; assay: purified protein; type: biochemical, Thermotoga maritima; settings: 2 mM 6-phosphogluconate, 5 mM MgCl2, 0.5 mM MnCl2, 100 mM HEPES pH 7.5, 70 °C, apparent Km
Excerpt: as §1

[3] = substrate: NC(=O)c1ccc[n+]([C@@H]2O[C@H](COP(=O)(O)OP(=O)(O)OC[C@H]3O[C@@H](n4cnc5c(N)ncnc54)[C@H](OP(=O)(O)O)[C@@H]3O)[C@@H](O)[C@H]2O)c1; assay: purified protein; type: biochemical, Thermotoga maritima; settings: 2 mM 6-phosphogluconate, 5 mM MgCl2, 0.5 mM MnCl2, 100 mM HEPES pH 7.5, 70 °C, apparent Km
Excerpt: as §1

T1 sequence (Q9WYR9 entry or part of it N32D/R33L/T34S): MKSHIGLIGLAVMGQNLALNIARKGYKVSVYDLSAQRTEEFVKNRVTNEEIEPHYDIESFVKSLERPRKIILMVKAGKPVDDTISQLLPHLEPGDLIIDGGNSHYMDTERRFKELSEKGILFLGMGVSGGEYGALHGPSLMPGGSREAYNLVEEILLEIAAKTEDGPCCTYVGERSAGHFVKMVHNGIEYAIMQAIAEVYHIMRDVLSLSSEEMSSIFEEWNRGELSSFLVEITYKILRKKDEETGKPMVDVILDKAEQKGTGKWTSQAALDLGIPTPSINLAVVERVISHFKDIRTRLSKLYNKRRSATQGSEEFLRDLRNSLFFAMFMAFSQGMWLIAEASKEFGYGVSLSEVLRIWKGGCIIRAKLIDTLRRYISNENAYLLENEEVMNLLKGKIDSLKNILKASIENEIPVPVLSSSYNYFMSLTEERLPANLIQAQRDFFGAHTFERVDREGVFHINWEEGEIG

Km [1] | Molecule | Km [2] | kcat [2] | kcat/Km [2] | Km [3] | kcat [3] | kcat/Km [3]
> 100 mM | NC(=O)c1ccc[n+]([C@@H]2O[C@H](COP(=O)(O)OP(=O)(O)OC[C@H]3O[C@@H](n4cnc5c(N)ncnc54)[C@H](OP(=O)(O)O)[C@@H]3O)[C@@H](O)[C@H]2O)c1 [NADP^+] |  |  |  |  |  | 
 | B1 | 4.3 ± 0.4 mM | 23.3 ± 2 s⁻¹ | 5400 M⁻¹ s⁻¹ | 0.005 ± 0.0004 mM | 17.6 ± 0.7 s⁻¹ | 3.52e+06 M⁻¹ s⁻¹
 | B2 | 3.9 ± 0.4 mM | 32.2 ± 2.2 s⁻¹ | 8300 M⁻¹ s⁻¹ | 70 ± 17 mM | 15.9 ± 5.8 s⁻¹ | 200 M⁻¹ s⁻¹
 | B3 | 4.0 ± 0.1 mM | 29.3 ± 1.2 s⁻¹ | 7300 M⁻¹ s⁻¹ | 2.3 ± 0.1 mM | 16.7 ± 1 s⁻¹ | 7300 M⁻¹ s⁻¹
 | B4 | 7.5 ± 0.8 mM | 25.4 ± 1.4 s⁻¹ | 3400 M⁻¹ s⁻¹ |  |  | 
 | B5 | 2.5 ± 0.2 mM | 47.9 ± 2.2 s⁻¹ | 19200 M⁻¹ s⁻¹ | 79 ± 20 mM | 15.9 ± 7.9 s⁻¹ | 200 M⁻¹ s⁻¹
